B1: thermophilin 1: first bacteriocin from S. thermophilus CNCM I-1351, sequence SEQ ID NO: 1, found in fraction 15 (protein)
chain: YSGKDCLKDMGGYALAGAGSGALWGAPAGGVGALPGAFVGAHVGAIAGGFACMGGMIGNKFN

These molecules were tested against standard crude extract of bacteriocin from the culture supernatant of S. thermophilus CNCM I-1351 (assay: not given). Settings: not given.
Work on Catalase (SIGMA C-10) (enzyme) yielded an Inactivation (mm): diameter of the inhibition halo in the agar well test after incubation with the enzyme of 14 mm. Ficin (SIGMA P-3266) (enzyme) showed an Inactivation (mm): diameter of the inhibition halo in the agar well test after incubation with the enzyme of 0 mm. Molecule “Lipase (SIGMA L-0382) + protease inhibitors (enzyme)” has an Inactivation (mm): diameter of the inhibition halo in the agar well test after incubation with the enzyme of 14 mm. For Nagarse (SIGMA P-4789) (enzyme), the Inactivation (mm): diameter of the inhibition halo in the agar well test after incubation with the enzyme was 0 mm. Pepsin (SIGMA P-700) (enzyme) was tested, and the Inactivation (mm): diameter of the inhibition halo in the agar well test after incubation with the enzyme was 0 mm. Work on Pronase E (SIGMA P-8038) (enzyme) yielded an Inactivation (mm): diameter of the inhibition halo in the agar well test after incubation with the enzyme of 0 mm. Molecule “Proteinase K (MERCK 1000 144) (from UniProt P06873) (enzyme)” has an Inactivation (mm): diameter of the inhibition halo in the agar well test after incubation with the enzyme of 0 mm. Molecule Trypsin (SIGMA T-8128) (enzyme) has an Inactivation (mm): diameter of the inhibition halo in the agar well test after incubation with the enzyme of 0 mm. Molecule α-amylase (SIGMA λ-0521) (enzyme) has an Inactivation (mm): diameter of the inhibition halo in the agar well test after incubation with the enzyme of 14 mm. With α-chymotrypsin (SIGMA C-7762) (enzyme) the Inactivation (mm): diameter of the inhibition halo in the agar well test after incubation with the enzyme was 0 mm.

These molecules were tested on S. thermophilus strain Sfi3 (typical indicator) (assay: Agar well test, antibacterial activity in arbitrary units). Settings: Pep RPC fractions 15 and 21.
Assay type: cell-based, Streptococcus thermophilus
Experimental: In order to do this, 35 ml of M 17 medium are poured into a Petri dish and 1% sucrose and 1.5% agar are added thereto.
5 ml of M 17 medium to which 1% sucrose and 0.75% agar are added are inoculated with 5 μl of a culture, prepared during the previous night, of a strain of S. thermophilus which is typically sensitive to the present bacteriocin (typical indicator), in this case the strain Sfi3 for example.
The 5 ml are poured over the 35 ml and left to dry for 15 min under a laminar flow. Holes of 5 mm in diameter are punched in the culture medium.
The test samples are poured into the holes, in an amount of 70 μl per hole. The incubation is carried out for 6 h under anaerobic conditions at 42° C. During this incubation, the typical indicator strain has grown and inhibition halos are visible.
“thermophilin 2: second bacteriocin from S. thermophilus CNCM I-1351, sequence SEQ ID NO: 2, predominant in fraction 21 (QINWGSVVGHCIGGAIIGGAFSGGAAAGVGCLVGSGKAIINGL)” was tested, and the “antibacterial activity of purified peptide fractions” value was “antibacterial activity”. In the case of B1, the “antibacterial activity of purified peptide fractions” value is reported as “antibacterial activity”.

Reference: US5683890A, “Bacteriocins from Streptococcus thermophilus” (Nestec S.A., priority 1993, dated 1997)
